In PMC5879678 (Proceedings of the National Academy of Sciences of the …, 2018):

B1: TasA239 (TasA core domain, amino acids 28-239) (domain or fragment, Bacillus subtilis, UniProt P54507 28-239, looked up)
chain: AFNDIKSKDATFASGTLDLSAKENSASVNLSNLKPGDKLTKDFQFENNGSLAIKEVLMALNYGDFKANGGSNTSPEDFLSQFEVTLLTVGKEGGNGYPKNIILDDANLKDLYLMSAKNDAAAAEKIKKQIDPKFLNASGKVNVATIDGKTAPEYDGVPKTPTDFDQVQMEIQFKDDKTKDEKGLMVQNKYQGNSIKLQFSFEATQWNGLTIK
modifications: 2H,15N,13C isotope labelling in the NMR samples
B2: TasA261 (mature secreted TasA, amino acids 28-261) (natural protein, Bacillus subtilis, UniProt P54507 28-261, looked up)
chain: AFNDIKSKDATFASGTLDLSAKENSASVNLSNLKPGDKLTKDFQFENNGSLAIKEVLMALNYGDFKANGGSNTSPEDFLSQFEVTLLTVGKEGGNGYPKNIILDDANLKDLYLMSAKNDAAAAEKIKKQIDPKFLNASGKVNVATIDGKTAPEYDGVPKTPTDFDQVQMEIQFKDDKTKDEKGLMVQNKYQGNSIKLQFSFEATQWNGLTIKKDHTDKDGYVKENEKAHSEDKN
modifications: 2H,13C,15N isotope labelling in the NMR samples

Tests used:
[1] = biological target: the molecule itself; test: Thioflavin T fluorescence
AUC = biological target: the molecule itself; test: AUC

Row | Protein | binding result [1] | stoichiometry N (AUC)
1 | B1 | binds | 
2 | B2 |  | 12
